{"source": "patent US20240343811A1", "key": {"[1]": {"target": "CD16 on primary human NK cells (human) (UniProt P08637)", "sequence (P08637 17-254)": "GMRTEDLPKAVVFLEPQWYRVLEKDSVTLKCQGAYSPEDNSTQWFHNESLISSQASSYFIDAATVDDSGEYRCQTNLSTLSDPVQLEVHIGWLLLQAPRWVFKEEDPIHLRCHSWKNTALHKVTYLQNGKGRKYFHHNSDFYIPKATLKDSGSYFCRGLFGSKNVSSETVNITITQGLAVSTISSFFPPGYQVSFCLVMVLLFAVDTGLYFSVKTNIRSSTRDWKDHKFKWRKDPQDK", "assay": "FACS on human NK cells"}, "[2]": {"target": "human CD16a (158V), full length, on cells (human) (UniProt P08637)", "sequence (P08637 17-254 F176V limits assumed)": "as the sequence (P08637 17-254) above, with F160V counted along it", "assay": "cell-based or functional assay"}, "[3]": {"target": "cynomolgus monkey CD16, full length, on FlpinCHO cells (cynomolgus monkey) (UniProt Q8SPW2)", "sequence (Q8SPW2 other isoform, or with tags, fused parts or gaps limits assumed)": "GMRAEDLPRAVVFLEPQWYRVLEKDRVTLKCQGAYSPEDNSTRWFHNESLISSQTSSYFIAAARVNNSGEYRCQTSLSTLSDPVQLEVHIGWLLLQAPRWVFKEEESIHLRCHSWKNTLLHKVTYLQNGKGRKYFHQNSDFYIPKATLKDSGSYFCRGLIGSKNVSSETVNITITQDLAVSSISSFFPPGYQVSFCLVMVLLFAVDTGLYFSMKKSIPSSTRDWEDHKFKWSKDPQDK", "assay": "FACS on FlpinCHO cells"}, "[4]": {"target": "human CD16a (158F), full length, on FlpinCHO cells (human) (UniProt P08637)", "sequence (P08637 17-254 limits assumed)": "as the sequence (P08637 17-254) above", "assay": "FACS on FlpinCHO cells"}, "[5]": {"target": "human CD16a (158V), full length, on cells (human) (UniProt P08637)", "assay": "FACS on FlpinCHO cells"}, "[6]": {"target": "human CD16b (NA1), full length, on FlpinCHO cells (human) (UniProt O75015)", "sequence (O75015 other isoform, or with tags, fused parts or gaps limits assumed)": "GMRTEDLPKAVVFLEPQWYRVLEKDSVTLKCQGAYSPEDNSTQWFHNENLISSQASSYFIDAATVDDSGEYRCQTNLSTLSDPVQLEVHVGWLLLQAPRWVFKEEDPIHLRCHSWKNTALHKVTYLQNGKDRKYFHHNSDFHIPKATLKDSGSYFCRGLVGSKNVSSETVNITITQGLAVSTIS", "assay": "FACS on FlpinCHO cells"}, "[7]": {"target": "human CD16b (NA2), full length, on FlpinCHO cells (human) (UniProt O75015)", "sequence (O75015 17-200 N65S limits assumed)": "as the sequence (O75015 other isoform, or with tags, fused parts or gaps limits assumed) above, with R20S, N49S, D66N, V90I counted along it", "assay": "FACS on FlpinCHO cells"}, "[8]": {"target": "human CD16a (158V), full length, on cells (human) (UniProt P08637)", "assay": "cell-based or functional assay", "remark": "listed apart in the source"}, "[9]": {"target": "human CD16a (158V), full length, on cells (human) (UniProt P08637)", "assay": "FACS, biotinylated antibody"}, "[10]": {"target": "human CD16a (158V), full length, on cells (human) (UniProt P08637)", "assay": "FACS, biotinylated antibody, +10 mg/mL human immunoglobulin"}}, "note": "Where two headings read alike, the source gives them in different places."}
{"substance": "NC, negative control antibody scFv-hFc (L234A, L235A and D265A) against chicken egg lysozyme (Fc fusion)", "values": [{"measurement": "Maximum mean fluorescence intensity", "setting": "[1]", "value": 238}, {"measurement": "Maximum fluorescence value", "setting": "[2]", "value": 2070}, {"measurement": "Maximum mean fluorescence intensity", "setting": "[3]", "value": 128}, {"measurement": "Maximum mean fluorescence intensity", "setting": "[4]", "value": 216}, {"measurement": "Maximum mean fluorescence intensity", "setting": "[5]", "value": 248}, {"measurement": "Maximum mean fluorescence intensity", "setting": "[6]", "value": 189}, {"measurement": "Maximum mean fluorescence intensity", "setting": "[7]", "value": 447}, {"measurement": "EC50, activation activity for Jurkat cell", "setting": "[8]", "value": 19, "unit": "nM"}, {"measurement": "Maximum fluorescence value", "setting": "[8]", "value": 6400}, {"measurement": "Maximum mean fluorescence intensity", "setting": "[9]", "value": 134}, {"measurement": "Maximum mean fluorescence intensity", "setting": "[10]", "value": 96}]}
